Assay results taken from US7521540B2, “CYR61 compositions and methods” (Munin Corporation, priority 1996, dated 2009).

How the values were obtained:
NIH 3T3 fibroblasts = test: Thymidine incorporation (mitogen potentiation), NIH 3T3; assay type: cell-based, mouse; conditions: bFGF 15 ng/ml or PDGF-BB 30 ng/ml
Procedure: More specifically, NIH 3T3 fibroblast cells were plated on 24-well plates at 3×10^4 cells/well and grown in DMEM with 10% fetal bovine serum (Intergen Co., Purchase, N.Y.) for 3-4 days and incubated with medium containing 0.2% FBS for the following 48 hours. The following compounds, at the parenthetically noted final concentrations, were then added to the plated cells in fresh DMEM containing 0.2% fbs and [^3H]-thymidine (1 μCi/ml final concentration; ICN Biomedicals, Inc., Costa Mesa, Calif.): bFGF (15 ng/ml), PDGF-BB (30 ng/ml), and murine Cyr61 (0.5-5 μg/ml). These compounds were added to individual plates according to the following pattern: 1) no supplementation; 2) murine Cyr61; 3) bFGF; 4) murine Cyr61 and bFGF; 5) PDGF-BB; and 6) murine Cyr61 and PDGF. After 18-20 hours of incubation, cells were washed with PBS and fixed with 10% trichloroacetic acid. DNA was dissolved in 0.1 N NaOH and thymidine incorporation was determined. […] Without any supplements, 3T3 cells incorporated approximately 1.8×10^4 cpm of [^3H]-thymidine, in the presence or absence of Cyr61. Cells exposed to bFGF alone incorporated about 1.2×10^5 cpm; cells contacting bFGF and murine Cyr61 incorporated 2×10^5 cpm. Cells receiving PDGF-BB incorporated about 1.2×10^5 cpm; and cells exposed to PDGF-BB and murine Cyr61 incorporated approximately 2.4×10^5 cpm.
DNA synthesis for HUVE cells and NIH 3T3 fibroblasts was measured by thymidine incorporation as described previously (Kireeva et al., [1996]) with minor modifications. HUVE cells were grown in 24-well plates to a subconfluent state, serum-starved for 24 hours and treated with F12K medium containing 10% fetal bovine serum (FBS), 1 μCi/ml [^3H]-thymidine and 10 ng/ml basic Fibroblast Growth Factor (bFGF) (Gibco-BRL, Inc.) with various concentrations of Cyr61 and Fisp12 as indicated. NIH 3T3 fibroblasts were grown to subconlfluence, serum-starved for 48 hours, and treated with Minimal Essential Medium (MEM) containing 0.5% FBS, 1 μCi/ml [^3H]-thymidine, bFGF and various concentrations of Cyr61 or Fisp12. Thymidine incorporation into the trichloroacetic acid-insoluble fraction was determined after 24 hour incubation. Logarithmically grown mink lung epithelial cells (Mv1lu, CCL64) were treated with various concentrations of TGF-β1 (Gibco-BRL) and 2 μg/ml of Cyr61 or Fisp12 for 18 hours; [^3H]-thymidine was then added to 1 μCi/ml for 2 hours. Thymidine incorporation was determnined as described above.

[1] = Heparin binding assay (salt elution from heparin-Sepharose/agarose)
[2] = system: 1064SK primary human foreskin fibroblasts; test: Fibroblast adhesion assay (methylene blue, A620); assay type: cell-based; conditions: for inhibition by anti-α6 antibody of binding mediated by the coated protein: anti-α6 20 μg/ml; for support of 1064SK fibroblast adhesion: protein coated on wells
Procedure: The ability of Cyr61 to mediate cell adhesion in normal fibroblasts was investigated. Microtiter wells were coated with purified recombinant Cyr61 protein, and 1064SK primary human foreskin fibroblasts were allowed to adhere under serum-free conditions. […] 50 μl cell suspensions were plated on microtiter wells coated with varying concentrations (0.5-5.0 μg/ml) of Cyr61 protein. After incubation at 37° C. for 30 minutes, adherent cells were fixed and stained with methylene blue.
In another experiment, microtiter wells were coated with either BSA, Cyr61 (2 μg/ml), or vitronectin (VN; 0.5 μg/ml) and blocked with affinity-purified anti-Cyr61 antibodies for one hour at 37° C. before 1064SK cells were plated.
The effects of divalent cations in cell adhesion to Cyr61 was also investigated. […] Data are means from triplicate determinations. […] Inhibition by Ca^2+ is characteristic of adhesion through some members of the β1 family of integrins, including receptors that bind type I collagen, laminin, and vitronectin (integrins α2β1, α6β1, and αVβ1) in fibroblasts, as well as the lymphocyte-specific integrin αLβ2.
The effects of RGD peptides on Cyr61-mediated fibroblast binding was tested by plating cells in wells coated with Cyr61 (2 μg/ml). Type I collagen (2 μg/ml) or vitronectin (0.5 μg/ml), 2 mM GRGDSP or GRGESP peptide was then added.
Cells were also pre-incubated with 40 μg/ml monoclonal antibodies against the integrin α5 or the integrin αV subunits at room temperature for 30 minutes, then plated on wells coated with Cyr61 (2 μg/ml), vitronectin (0.5 μg/ml) or fibronectin (FN, 1 μg/ml). […] The data are means, representative of three experiments.
The 1064 SK cells were also analyzed using the monoclonal antibody JBIA, which binds the β1 integrin subunit. Cells were pre-incubated with the antibody (50 μg/ml) before plating on microtiter wells coated with Cyr61 (2 μg/ml), Type I collagen (2 μg/ml), or vitronectin (0.5 μg/ml). […] Data are means, representative of three experiments.
To identify the specific β1 integrin that mediates fibroblast adhesion to Cyr61, the inhibitory effects of function-blocking monoclonal antibodies were tested against various integrin α subunits. […] The data are means, representative of at least three experiments.

[3] = system: 1064SK human skin fibroblasts; test: Human skin fibroblast migration; assay type: cell-based; conditions: 1064SK cells
[4] = system: primary human foreskin fibroblasts; test: Cyr61-regulated gene expression (multi-gene blot, Northern); assay type: cell-based
Procedure: Purified, soluble, recombinant Cyr61 protein was added to cultures of primary human foreskin fibroblasts for 24 hours. From these cells, mRNA was isolated for preparation of probes to hybridize to a multi-gene blot (Clontech Atlas Human Array 1.2 cat no. 7850-1) containing about 650 genes. The levels of expression of these genes in Cyr61-treated cells were compared to that of control cells. […] These findings have been confirmed by Northern blot analysis showing increases or decreases of the mRNAs in question in Cyr61-treated cells. A time course of expression changes has been established. In particular, by 6 hours after its addition, Cyr61 has induced expression of VEGF-A mRNA and the induction is still evident at 12 and 24 hours post-addition. Also at 12 and 24 hours post-addition, Cyr61 has induced expression of VEGF-A polypeptide. With respect to VEGF-C, induction of mRNA is clearly evident 12 hours after addition of Cyr61 and the induction persists at least through 24 hours post-addition. Cyr61 is expected to induce the expression of VEGF-C polypeptide with similar kinetics.

B1: PDGF-BB: Platelet-Derived Growth Factor, BB isoform (protein, UniProt P01127 82-190, looked up)
Platelet-derived growth …: SLGSLTIAEPAMIAECKTRTEVFEISRRLIDRTNANFLVWPPCVEVQRCSGCCNNRNVQCRPTQVQLRPVQVRKIEIVRKKPIFKKATVTLEDHLACKCETVAAARPVT
modifications: BB homodimer
notes: Platelet-Derived Growth Factor, BB isoform
With B1 the “[3H]-thymidine incorporation, growth factor alone” value (NIH 3T3 fibroblasts) was “about 1.2×10^5 cpm”.

B2: H2: Cyr61 variant, heparin-binding motif at residues 305-310 replaced with alanine (protein)
chain: TCPAACHCPLEAPKCAPGVGLVRDGCGCCKVCAKQLNEDCSKTQPCDHTKGLECNFGASSTALKGICRAQSEGRPCEYNSRIYQNGESFQPNCKHQCTCIDGAVGCIPLCPQELSLPNLGCPNPRLVKVSGQCCEEWVCDEDSIKDSLDDQDDLLGLDASEVELTRNNELIAIGKGSSLKRLPVFGTEPRVLFNPLHAHGQKCIVQTTSWSQCSKSCGTGISTRVTNDNPECRLVKETRICEVRPCGQPVYSSLKKGKKCSKTKKSPEPVRFTYAGCSSVVAAYAPYCGSCVDGRCCTPLQTRTVKMRFRCEDGEMFSKNVMMIQSCKCNYNCPHPNEASFRLYSLFNDIHKFRD
With B2 the “heparin binding” value [1] was “somewhat decreased heparin-binding affinities”, the “inhibition by anti-α6 antibody of binding mediated by the coated protein” value [2] was 70% and the “support of 1064SK fibroblast adhesion” value [2] was “able to support fibroblast adhesion”.

B3: decorin: Decorin from Sigma (protein, UniProt P21793 31-360, looked up)
Decorin: DEASGIGPEEHFPEVPEIEPMGPVCPFRCQCHLRVVQCSDLGLEKVPKDLPPDTALLDLQNNKITEIKDGDFKNLKNLHTLILINNKISKISPGAFAPLVKLERLYLSKNQLKELPEKMPKTLQELRVHENEITKVRKSVFNGLNQMIVVELGTNPLKSSGIENGAFQGMKKLSYIRIADTNITTIPQGLPPSLTELHLDGNKITKVDAASLKGLNNLAKLGLSFNSISAVDNGSLANTPHLRELHLNNNKLVKVPGGLADHKYIQVVYLHNNNISAIGSNDFCPPGYNTKKASYSGVSLFSNPVQYWEIQPSTFRCVYVRAAVQLGNYK
With B3 the “concentration that inhibited cell adhesion to Cyr61” value ([2]; in cell suspension) was 10 µg/mL.

B4: H1: Cyr61 variant, lysine/arginine of heparin-binding motif at residues 280-290 replaced with alanine (protein)
chain: TCPAACHCPLEAPKCAPGVGLVRDGCGCCKVCAKQLNEDCSKTQPCDHTKGLECNFGASSTALKGICRAQSEGRPCEYNSRIYQNGESFQPNCKHQCTCIDGAVGCIPLCPQELSLPNLGCPNPRLVKVSGQCCEEWVCDEDSIKDSLDDQDDLLGLDASEVELTRNNELIAIGKGSSLKRLPVFGTEPRVLFNPLHAHGQKCIVQTTSWSQCSKSCGTGISTRVTNDNPECRLVKETRICEVRPCGQPVYSSLKKAGAACSATAKPEPVRFTYAGCSSVKKYRPKYCGSCVDGRCCTPLQTRTVKMRFRCEDGEMFSKNVMMIQSCKCNYNCPHPNEASFRLYSLFNDIHKFRD
With B4 the “heparin binding” value [1] was “somewhat decreased heparin-binding affinities”, the “inhibition by anti-α6 antibody of binding mediated by the coated protein” value [2] was 69% and the “support of 1064SK fibroblast adhesion” value [2] was “able to support fibroblast adhesion”.

B5: heparatinase: Enzyme used to pretreat cells (heparinase I, 2 U/ml) (protein, UniProt Q05819 22-384, looked up)
Heparin lyase I: QQKKSGNIPYRVNVQADSAKQKAIIDNKWVAVGINKPYALQYDDKLRFNGKPSYRFELKAEDNSLEGYAAGETKGRTELSYSYATTNDFKKFPPSVYQNAQKLKTVYHYGKGICEQGSSRSYTFSVYIPSSFPDNATTIFAQWHGAPSRTLVATPEGEIKTLSIEEFLALYDRMIFKKNIAHDKVEKKDKDGKITYVAGKPNGWKVEQGGYPTLAFGFSKGYFYIKANSDRQWLTDKADRNNANPENSEVMKPYSSEYKTSTIAYKMPFAQFPKDCWITFDVAIDWTKYGKEANTILKPGKLDVMMTYTKNKKPQKAHIVNQQEILIGRNDDDGYYFKFGIYRVGNSTVPVTYNLSGYSETAR
In the case of B5, the “1064SK adhesion to Cyr61-coated wells with agent” value ([2]; Cyr61 2 μg/ml, agent at the level stated in the block, Mg2+ 5.0 mM after EDTA) is reported as 0.13 A620, the “1064SK adhesion to fibronectin-coated wells with agent” value ([2]; fibronectin 1 μg/ml) is reported as 0.66 A620 and the “1064SK adhesion to vitronectin-coated wells with agent” value ([2]; vitronectin 0.5 μg/ml) is reported as 0.63 A620.

B6: Cyr61 NT: Human Cyr61 fragment with domains I, II and III, lacking heparan binding domain IV (protein)
chain: TCPAACHCPLEAPKCAPGVGLVRDGCGCCKVCAKQLNEDCSKTQPCDHTKGLECNFGASSTALKGICRAQSEGRPCEYNSRIYQNGESFQPNCQHQCTCIDGAVGCIPLCPQELSLPNLGCPNPRLVKVTGQCCEEWVCDEDSIKDPMEDQDGLLGKELGFDASEVELTRNNELIAVGKGRSLKRLPVFGMEPRILYNPLQGQKCIVQTTSWSQCSKTCGTGISTRVTNDNPECRLVKETRICEVRPCGQPVYSSLK
In the case of B6, the “migration of human fibroblasts” value [3] is reported as “did support fibroblast migration”, the “migration of human fibroblasts” value ([3]; listed as human Cyr61 NT) is reported as “induced 1064SK cell migration” and the “support of 1064SK fibroblast adhesion” value [2] is reported as “did not support fibroblast adhesion”. For the same molecule, the “induction of VEGF, MMP1, MMP3 etc.” value [4] was “do not induce the expression of the above-referenced genes”.
